The results in this text go back to paper PMC4102244, “Molecular mechanism for Rabex-5 GEF activation by Rabaptin-5” (eLife, 2014).

Series [1] concerns the target Rab5-Rabex-5-Rabaptin-5C21 (R3) complex (human) (UniProt P20339). Put plainly: SAXS; purified R2, R2Δ, R3 and R3Δ complexes at 5 mg/ml in 20 mM Tris–HCl (pH 8.0), 150 mM NaCl, 293 K.
The target of series [2] is Rabex-5-Rabaptin-5C21 (R2) complex (human) (UniProt Q15276). Described as above.
Series [3] deals with the molecule itself. Put plainly: crystal structure; Rabex-5Δ-Rabaptin-5C21_(2) (R2Δ) complex, 3.10 Å; hanging drop, 16°C, 2.0 M NaH2PO4/K2HPO4 (pH 7.0), 0.05% n-octyl-β-D-galactopyranoside.

As usually defined, the stoichiometry N is a count of units in the complex or per binding partner. Molecule “Rab5-Rabex-5-Rabaptin-5C21 (R3) complex (from UniProt P20339 15-184; Q15276 552-642)” came in with a stoichiometry N in series [1] of 2. On to “Rabex-5-Rabaptin-5C21 (R2) complex (from UniProt Q15276 552-642)”, for which the stoichiometry N in series [2] was 2.

B1: Rabaptin-5 C2-1 domain (residues 552–642) (domain or fragment, human, UniProt Q15276 552-642, looked up)
chain: ETRDQVKKLQLMLRQANDQLEKTMKDKQELEDFIKQSSEDSSHQISALVLRAQASEILLEELQQGLSQAKRDVQEQMAVLMQSREQVSEEL
notes: Rabaptin-5, human, C2-1 domain, residues 552-642; In pET-Duet1 a tag is stated only for the Rabex-5 partner; also called Rabaptin-5C21_(2)
As for B1, in series [3], the binding result is “binds”.
